Experimental data taken from patent publication US20250170255A1 (Daiichi Sankyo, published 2025).
One block for each binder: values may come before it.

Experiments:
[1] = biological target: T1, biotinylated human TROP2 antigen (human, UniProt P09758 27-274, C-terminal Avi tag sequence biotinylated); assay: ELISA, anti-FLAG detection, with and without MMP1
T1 construct: extracellular domain
T1 sequence (looked up): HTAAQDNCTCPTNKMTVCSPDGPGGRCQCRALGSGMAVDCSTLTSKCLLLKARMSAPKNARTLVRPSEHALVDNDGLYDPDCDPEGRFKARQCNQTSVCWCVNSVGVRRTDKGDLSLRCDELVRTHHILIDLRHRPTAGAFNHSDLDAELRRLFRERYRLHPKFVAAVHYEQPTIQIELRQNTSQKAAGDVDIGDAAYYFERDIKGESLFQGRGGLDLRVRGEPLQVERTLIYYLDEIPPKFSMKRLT
Description: (§1) The resultant was then added to the plate comprising the human TROP2 antigen immobilized thereon at 50 μl/well. The bound scFv was detected using the HRP-labeled anti-FLAG antibody (Sigma-Aldrich) diluted to 5,000-fold with ELISA buffer.
The antibody was adjusted to 1 μM with the use of MMP buffer, MMP1 was added to the final concentration of 1 μM or 0 μM, and the reaction was allowed to proceed at 37° C. for 15 minutes. Thereafter, the antibody with the concentration thereof being adjusted with ELISA buffer was added to the wells.

[2] = biological target: T1, biotinylated human TROP2 antigen; assay: ELISA, immobilised biotinylated human TROP2 antigen, anti-FLAG-HRP detection; after MMP1 pre-treatment (mask linker cleaved)
Description: (§2) NeutrAvidin (Thermo Fisher Scientific) diluted to 1 μg/ml with PBS was added at 50 μl/well to a 96-well Maxi-sorp plate (Black, Nunc) and immobilized at 4° C. overnight. The plate was washed with PBS containing 0.05% (w/v) Tween-20 (BioRad) (ELISA buffer) and then blocked with Blocker Casein (Thermo Fisher Scientific). The plate was washed with ELISA buffer, the biotinylated human TROP2 antigen (Accession Number: P09758; the extracellular domain was purified by the method known to a person skilled in the art and the C-terminal Avi tag sequence was then biotinylated) diluted to 1 μg/ml with PBS was added at 50 μl/well, and the resultant was then agitated for 30 minutes at room temperature. […] The plate was washed with ELISA buffer, the SuperSignal Pico ELISA chemiluminescent substrate (Thermo Fisher Scientific) was added, and chemiluminescence 10 minutes thereafter was then assayed using a plate reader.
as §1

TROP2 on FaDu cells = biological target: T2, TROP2 on FaDu cells (human, UniProt P09758 27-323); assay: cell-based or functional assay
T2 sequence (looked up): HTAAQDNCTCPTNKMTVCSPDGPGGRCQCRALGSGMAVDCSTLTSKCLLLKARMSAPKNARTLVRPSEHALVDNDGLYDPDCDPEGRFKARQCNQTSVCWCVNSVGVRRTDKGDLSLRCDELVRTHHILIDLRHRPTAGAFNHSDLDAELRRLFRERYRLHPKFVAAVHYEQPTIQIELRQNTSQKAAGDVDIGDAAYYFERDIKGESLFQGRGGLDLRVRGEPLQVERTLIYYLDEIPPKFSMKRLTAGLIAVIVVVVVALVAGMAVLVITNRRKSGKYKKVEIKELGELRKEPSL

[3] = biological target: T1, biotinylated human TROP2 antigen; assay: ELISA, immobilised biotinylated human TROP2 antigen, chemiluminescence; after MMP1 pre-treatment
Description: (§3) NeutrAvidin (Thermo Fisher Scientific) diluted to 1 μg/ml with PBS was added at 50 μl/well to a 96-well Maxi-sorp plate (Black, Nunc) and immobilized at 4° C. overnight. The plate was washed with PBS containing 0.05% (w/v) Tween-20 (BioRad) (ELISA buffer) and then blocked with Blocker Casein (Thermo Fisher Scientific). The plate was washed with ELISA buffer, the biotinylated human TROP2 antigen (Accession Number: P09758; the extracellular domain was purified by the method known to a person skilled in the art and the C-terminal Avi tag sequence was then biotinylated) diluted to 1 μg/ml with PBS was added at 50 μl/well, and the resultant was then agitated for 30 minutes at room temperature. […] The plate was washed with ELISA buffer, 50 μl of the horseradish peroxidase (HRP)-labeled anti-human IgG antibody (Jackson Immuno Research Laboratories) diluted to 2,500-fold with ELISA buffer was added, and the resultant was then agitated for 30 minutes at room temperature. The plate was washed with ELISA buffer, the SuperSignal Pico ELISA chemiluminescent substrate (Thermo Fisher Scientific) was added, and chemiluminescence 10 minutes thereafter was then assayed using a plate reader.

[4] = biological target: T1, biotinylated human TROP2 antigen; assay: ELISA, immobilised biotinylated human TROP2 antigen, chemiluminescence
Description: as §3

[5] = biological target: T1, biotinylated human TROP2 antigen; assay: ELISA, immobilised biotinylated human TROP2 antigen, chemiluminescence; without MMP1
Description: as §3

[6] = biological target: T1, biotinylated human TROP2 antigen; assay: ELISA pH 7.5 against pH 5.5
[7] = biological target: T1, biotinylated human TROP2 antigen; assay: ELISA, immobilised biotinylated human TROP2 antigen, chemiluminescence; pH 5.5
[8] = biological target: T1, biotinylated human TROP2 antigen; assay: ELISA, immobilised biotinylated human TROP2 antigen, chemiluminescence; pH 7.5
[9] = biological target: T1, biotinylated human TROP2 antigen; assay: ELISA, immobilised biotinylated human TROP2 antigen, chemiluminescence; without MMP1; remark: listed apart in the source
Description: as §3

[10] = biological target: T1, biotinylated human TROP2 antigen; assay: ELISA, immobilised biotinylated human TROP2 antigen, chemiluminescence; after MMP1 pre-treatment (mask linker cleaved)
Description: as §3

[11] = biological target: T1, biotinylated human TROP2 antigen; assay: ELISA with and without MMP1
[12] = biological target: T1, biotinylated human TROP2 antigen; assay: ELISA, immobilised biotinylated human TROP2 antigen, chemiluminescence; pH 7.5; remark: listed apart in the source
Description: (§4) The plate was washed with PBS containing 0.05% (w/v) Tween-20 (BioRad) (ELISA buffer) and then blocked with Blocker Casein (Thermo Fisher Scientific). The plate was washed with ELISA buffer, the biotinylated human TROP2 antigen (Accession Number: P09758; the extracellular domain was purified by the method known to a person skilled in the art and the C-terminal Avi tag sequence was then biotinylated) diluted to 1 μg/ml with PBS was added at 50 μl/well, and the resultant was then agitated for 30 minutes at room temperature. […] The plate was washed with ELISA buffer, 50 μl of the horseradish peroxidase (HRP)-labeled anti-human IgG antibody (Jackson Immuno Research Laboratories) diluted to 2,500-fold with ELISA buffer was added, and the resultant was then agitated for 30 minutes at room temperature. The plate was washed with ELISA buffer, the SuperSignal Pico ELISA chemiluminescent substrate (Thermo Fisher Scientific) was added, and chemiluminescence 10 minutes thereafter was then assayed using a plate reader. […]

[13] = biological target: T1, biotinylated human TROP2 antigen; assay: ELISA, immobilised biotinylated human TROP2 antigen, chemiluminescence; pH 5.5; remark: listed apart in the source
Description: as §4

[14] = biological target: T1, biotinylated human TROP2 antigen; assay: ELISA, immobilised biotinylated human TROP2 antigen, chemiluminescence; pH 7.5; remark: listed apart in the source
Description: as §4

[15] = biological target: T1, biotinylated human TROP2 antigen; assay: as above; remark: listed apart in the source
Description: as §4

[16] = biological target: T1, biotinylated human TROP2 antigen; assay: ELISA, immobilised biotinylated human TROP2 antigen, chemiluminescence; pH 5.5; remark: listed apart in the source
[17] = biological target: T1, biotinylated human TROP2 antigen; assay: ELISA, immobilised biotinylated human TROP2 antigen, anti-FLAG-HRP detection; without MMP1
Description: as §2, §1

[18] = biological target: T1, biotinylated human TROP2 antigen; assay: ELISA, immobilised biotinylated human TROP2 antigen, anti-FLAG-HRP detection; after MMP1 pre-treatment (mask linker cleaved); remark: listed apart in the source
Description: as §2, §1

B1: MHT1001 (scFv)
scFv: AMGYLALKHPWPGLAENSGSGGGGSVLVPMAMMASGGSDVNSQVQLVQSGAEVKKPGASVKVSCKASGYTFTTAGMQWVRQAPGQGLEWMGWINTHSGVPKYAEDFKGRVTISADTSTSTAYLQLSSLKSEDTAVYYCARSGFGSSYWYFDVWGQGTLVTVSSGGGGSGGGGSGGGGSDIQMTQSPSSLSASVGDRVTITCKASQDVSTAVAWYQQKPGKAPKLLIYSASYRYTGVPSRFSGSGSGTDFTLTISSLQPEDFAVYYCQQHYITPLTFGQGTKLEIKRGAPSGDYKDDDDKGAAAHHHHHH
- EC50 ratio of binding intensity (without MMP1 / with MMP1) [1]: 7.9
- EC50 (read off the curve) [2]: ~8 nM

B2: MHT1808-PBD-ADC (antibody, human IgG1, kappa)
heavy: not shown
light: DIQMTQSPSSLSASVGDRVTITCKASQDVSTAVAWYQQKPGKAPKLLIYSASYRYTGVPSRFSGSGSGTDFTLTISSLQPEDFAVYYCQQHYITPLTFGQGTKLEIKRTVAAPSVFIFPPSDEQLKSGTASVVCLLNNFYPREAKVQWKVDNALQSGNSQESVTEQDSKDSTYSLSSTLTLSKADYEKHKVYACEVTHQGLSSPVTKSFNRGEC
modifications: N297 glycan remodelled to azide-bearing MSG1-type glycan and conjugated to Linker 2 (PBD drug linker); average number of drugs bound 1.9
- in vitro growth inhibitory activity on FaDu cells, EC50 ratio (pH 7.4/pH 5.5) (TROP2 on FaDu cells): 10.7

B3: MHT1221-PBD-ADC (antibody, human IgG1, kappa)
heavy: not shown
light: DIQMTQSPSSLSASVGDRVTITCKASQDVSTAVAWYQQKPGKAPKLLIYSASYRYTGVPSRFSGSGSGTDFTLTISSLQPEDFAVYYCQQHYITPLTFGQGTKLEIKRTVAAPSVFIFPPSDEQLKSGTASVVCLLNNFYPREAKVQWKVDNALQSGNSQESVTEQDSKDSTYSLSSTLTLSKADYEKHKVYACEVTHQGLSSPVTKSFNRGEC
modifications: N297 glycan remodelled to azide-bearing MSG1-type glycan and conjugated to Linker 2 (PBD drug linker); average number of drugs bound 1.9
- in vitro growth inhibitory activity on FaDu cells, EC50 ratio (pH 7.4/pH 5.5) (TROP2 on FaDu cells): 1.9

B4: anti-TROP2 antibody HT1-11 (antibody)
heavy: not shown
light: DIQMTQSPSSLSASVGDRVTITCKASQDVSTAVAWYQQKPGKAPKLLIYSASYRYTGVPSRFSGSGSGTDFTLTISSLQPEDFAVYYCQQHYITPLTFGQGTKLEIKRTVAAPSVFIFPPSDEQLKSGTASVVCLLNNFYPREAKVQWKVDNALQSGNSQESVTEQDSKDSTYSLSSTLTLSKADYEKHKVYACEVTHQGLSSPVTKSFNRGEC
notes: Known antibody of WO 2015/098099; Full-length entries
- EC50 (read off the curve) [3]: ~0.5 nM
- EC50 (read off the curve) [4]: ~0.6 nM
- EC50 (read off the curve) [5]: ~0.5 nM

B5: anti-TROP2 masked antibody MHT1805 (antibody)
heavy: not shown
light: DIQMTQSPSSLSASVGDRVTITCKASQDVSTAVAWYQQKPGKAPKLLIYSASYRYTGVPSRFSGSGSGTDFTLTISSLQPEDFAVYYCQQHYITPLTFGQGTKLEIKRTVAAPSVFIFPPSDEQLKSGTASVVCLLNNFYPREAKVQWKVDNALQSGNSQESVTEQDSKDSTYSLSSTLTLSKADYEKHKVYACEVTHQGLSSPVTKSFNRGEC
notes: His cluster linker; Full-length entries
- EC50 ratio (neutral pH conditions/acidic pH conditions) [6]: 2.3

B7: anti-TROP2 masked antibody MHT1007 (antibody)
heavy: not shown
light: DIQMTQSPSSLSASVGDRVTITCKASQDVSTAVAWYQQKPGKAPKLLIYSASYRYTGVPSRFSGSGSGTDFTLTISSLQPEDFAVYYCQQHYITPLTFGQGTKLEIKRTVAAPSVFIFPPSDEQLKSGTASVVCLLNNFYPREAKVQWKVDNALQSGNSQESVTEQDSKDSTYSLSSTLTLSKADYEKHKVYACEVTHQGLSSPVTKSFNRGEC
notes: IgG-type; MHT1001 mimotope peptide and MMP cleavable linker fused to the heavy chain; Full-length entries
- EC50 (read off the curve) [9]: ~30 nM
- EC50 (read off the curve) [10]: ~0.3 nM
- EC50 ratio of binding intensity (without MMP1 / with MMP1) [11]: 104

B12: MHT1002 (scFv)
scFv: AMGYLALKHPWPGLAENSGSGGGGSVLVPMAMMASGGSDVNSDIQMTQSPSSLSASVGDRVTITCKASQDVSTAVAWYQQKPGKAPKLLIYSASYRYTGVPSRFSGSGSGTDFTLTISSLQPEDFAVYYCQQHYITPLTFGQGTKLEIKRGGGGSGGGGSGGGGSQVQLVQSGAEVKKPGASVKVSCKASGYTFTTAGMQWVRQAPGQGLEWMGWINTHSGVPKYAEDFKGRVTISADTSTSTAYLQLSSLKSEDTAVYYCARSGFGSSYWYFDVWGQGTLVTVSSGAPSGDYKDDDDKGAAAHHHHHH
notes: Mimotope peptide, MMP cleavable linker, HT1-11 scFv, FLAG tag, His tag
- EC50 ratio of binding intensity (without MMP1 / with MMP1) [1]: 4.3
- EC50 (read off the curve) [17]: ~10 nM
- EC50 (read off the curve) [18]: ~3 nM

Results, then the binder that gave them:

- EC50 (read off the curve) [7]: ~7 nM
- EC50 (read off the curve) [8]: ~60 nM
- EC50 ratio (neutral pH conditions/acidic pH conditions) [6]: 7.8
B6: anti-TROP2 masked antibody MHT1810 (antibody)
heavy: not shown
light: DIQMTQSPSSLSASVGDRVTITCKASQDVSTAVAWYQQKPGKAPKLLIYSASYRYTGVPSRFSGSGSGTDFTLTISSLQPEDFAVYYCQQHYITPLTFGQGTKLEIKRTVAAPSVFIFPPSDEQLKSGTASVVCLLNNFYPREAKVQWKVDNALQSGNSQESVTEQDSKDSTYSLSSTLTLSKADYEKHKVYACEVTHQGLSSPVTKSFNRGEC
notes: His at every other position in the linker; Full-length entries; also called HMT1810

- EC50 (read off the curve) [12]: ~50 nM
- EC50 ratio (neutral pH conditions/acidic pH conditions) [6]: 1.7
B8: anti-TROP2 masked antibody MHT1221 (antibody)
heavy: not shown
light: DIQMTQSPSSLSASVGDRVTITCKASQDVSTAVAWYQQKPGKAPKLLIYSASYRYTGVPSRFSGSGSGTDFTLTISSLQPEDFAVYYCQQHYITPLTFGQGTKLEIKRTVAAPSVFIFPPSDEQLKSGTASVVCLLNNFYPREAKVQWKVDNALQSGNSQESVTEQDSKDSTYSLSSTLTLSKADYEKHKVYACEVTHQGLSSPVTKSFNRGEC
notes: No His cluster; Full-length entries

- EC50 (read off the curve) [13]: ~5 nM
- EC50 (read off the curve) [14]: ~60 nM
- EC50 ratio (neutral pH conditions/acidic pH conditions) [6]: 11.4
B9: anti-TROP2 masked antibody MHT1809 (antibody)
heavy: not shown
light: DIQMTQSPSSLSASVGDRVTITCKASQDVSTAVAWYQQKPGKAPKLLIYSASYRYTGVPSRFSGSGSGTDFTLTISSLQPEDFAVYYCQQHYITPLTFGQGTKLEIKRTVAAPSVFIFPPSDEQLKSGTASVVCLLNNFYPREAKVQWKVDNALQSGNSQESVTEQDSKDSTYSLSSTLTLSKADYEKHKVYACEVTHQGLSSPVTKSFNRGEC
notes: as for B5

- EC50 ratio (neutral pH conditions/acidic pH conditions) [6]: 3.6
B10: anti-TROP2 masked antibody MHT1804 (antibody)
heavy: not shown
light: DIQMTQSPSSLSASVGDRVTITCKASQDVSTAVAWYQQKPGKAPKLLIYSASYRYTGVPSRFSGSGSGTDFTLTISSLQPEDFAVYYCQQHYITPLTFGQGTKLEIKRTVAAPSVFIFPPSDEQLKSGTASVVCLLNNFYPREAKVQWKVDNALQSGNSQESVTEQDSKDSTYSLSSTLTLSKADYEKHKVYACEVTHQGLSSPVTKSFNRGEC
notes: as for B5

- EC50 ratio (neutral pH conditions/acidic pH conditions) [6]: 3.9
- EC50 (read off the curve) [15]: ~100 nM
- EC50 (read off the curve) [16]: ~30 nM
B11: anti-TROP2 masked antibody MHT1803 (antibody)
heavy: not shown
light: DIQMTQSPSSLSASVGDRVTITCKASQDVSTAVAWYQQKPGKAPKLLIYSASYRYTGVPSRFSGSGSGTDFTLTISSLQPEDFAVYYCQQHYITPLTFGQGTKLEIKRTVAAPSVFIFPPSDEQLKSGTASVVCLLNNFYPREAKVQWKVDNALQSGNSQESVTEQDSKDSTYSLSSTLTLSKADYEKHKVYACEVTHQGLSSPVTKSFNRGEC
notes: as for B5
